Assay results published in patent publication US20200399712A1, “COMPOSITIONS AND METHODS FOR THE DIAGNOSIS AND DETECTION OF TUMORS AND CANCER PROGNOSIS” (priority 2018, published 2020).

Experiments:
[1] = system: E2, E4, E5 expression head and neck cell line; assay: Growth of E2, E4, E5 expressing head and neck cell line with FGFR inhibitor; type: cell-based
HPV-16 [2] = assay: qPCR sensitivity against HPV-HNSCC tumor samples diluted among 10 ng normal human DNA
Experimental: Quantitative real-time polymerase chain reaction (qRT-PCR) was used to examine the threshold in each experiment. qRT-PCR was performed using Quant Studio 6 Flex Real-Time PCR System (Thermo Fisher Scientific). All samples were run in triplicates. HPV-16 viral amplicon copy number estimations were developed using the CaSki cell line. After amplification of the amplicon by PCR, DNA concentration was calculated by weight NanoDrop®, then converted to DNA copy number by calculation based on the molecular weight of the double stranded amplicon. […] In the other 32 HPV-HNSCC cohort, Applicants diluted the tumor sample to 990 pg, 198 pg, 99 pg, 39.6 pg, 7.9 pg, 3.2 pg, and 1.6 pg of amount tumor weight, (correspond to 150, 30, 15, 6, 1.2, 0.6, and 0.3 cells: assumption that 1 tumor cell have 6.6 pg DNA (=3*10^9 (human DNA genome bp)*2 (diploid)*1.67*10^(−24) g (weight/Dalton))) combined with 10 ng normal leukocyte human DNA and compare the threshold of each primer-probe sets.
In this regard, Applicants investigated the other 32 HPV-HNSCC tumor samples. From the assumption that 1 cell tumor DNA contain 6.6 pg DNA, Applicants made the dilution series by DNA derived from normal lymphocyte as described and decide the threshold for each primer-probe set.
Furthermore, to determine whether these designed primer/probe sets also have a high sensitivity in a separate cohort, Applicants performed PCR in a validation cohort of 32 additional primary tumor samples with validated presence of HPV-16. Applicants prepared serial of dilutions of tumor DNA in normal lymphocyte DNA from non-cancer individuals and determined the threshold for each primer/probe set and defined amplification thresholds expressed in number of tumor cells for each sample (Table 5).

HPV DNA = assay: CLIA HPV test pilot study on saliva rinse samples from HPV-positive HNSCC patients and non-cancer controls; set-up: species or system HPV16; HPV16 DNA measured by CLIA HPV test: unit not given here
Experimental: As a final validation, Applicants a small pilot study was performed on a blinded set of saliva rinse samples from 28 patients with HPV-positive HNSCC and 15 salivary rinses from non-cancer controls. […] The sensitivity increased to 96% when all three sets were used (Table 3).

HPV16 DNA [3] = assay: CLIA test for HPV16, performance characteristics in plasma
Source text: (§1) These primer/probe sets were adapted for development of a CLIA test for HPV16 DNA detection in plasma and salivary rinses (Table 2). Test performance was improved, so that analytical sensitivity in salivary rinse spike in assays ranges from 2.5-5.0 DNA copies/mL with 100% specificity for the three primer/probe sets that are now part of the component assay, resulting in a five-fold improvement in analytic sensitivity that is in the range of sensitivity found in sequence based liquid biopsy methods (FIG. 23, Table 2). Additionally, the assays can be used quantitatively, with measuring ranges between 2.0 log10-7.0 log10 copies/mL.

HPV-16 [4] = assay: qPCR on 20 ng DNA from saliva samples of HPV-HNSCC patients
HPV-16 genome = assay: qPCR sensitivity against HPV-16 copy number (known-copy HPV-16 DNA among 10 ng normal human DNA); settings: for reaction under 30 copies of HPV-16 genome: among 10 ng normal DNA, triplicate qPCR
HPV16 DNA [5] = assay: CLIA test for HPV16, performance characteristics in salivary rinse
Source text: as §1

[6] = tumor DNA dilution, fraction of 32 samples
[7] = first template ('... HPV16', word is an image)
[8] = second template (name is an image)
[9] = samples tested 3 times, 10 ng DNA from healthy individual

**Q.** With AZD4547 as the molecule, how does the “growth effect induced by E2, E4, E5” value [1] read?
**A.** reversed the growth effect induced by E2, E4, E5

B1: HR E5L2-4: primer/probe set for junction between E5 and L2, SEQ ID NO: 55-57 (same as SEQ ID NO: 4-6) (nucleic acid)
DNA 1: GCAAAACGCACAAAACGTGC
DNA 2: GACATGTACCTGCCTGTTTGC
DNA 3: CGGCTACCCAACTTTATAAAACA
modifications: chemistry not given here
**Q.** How did the “sensitivity under 100 cells” value (HPV-16 [2]; 32 HPV-HNSCC tumor samples) turn out when B1 was run?
**A.** 93.8%

**Q.** And the “sensitivity under single cells” value (HPV-16 [2]; 32 HPV-HNSCC tumor samples, 6.6 pg DNA)?
**A.** 15.6%

**Q.** And the “sensitivity under 10 cells” value (HPV-16 [2]; 32 HPV-HNSCC tumor samples, 66 pg DNA)?
**A.** 50.0%

**Q.** And the “Threshold of tumor cell numbers for HPV-16 detection” value (“Threshold of tumor cell numbers” below) (HPV-16 [2]; Sample # 1)?
**A.** 30.0 tumor cells

**Q.** And the “Threshold of tumor cell numbers” value (HPV-16 [2]; Sample # 2)?
**A.** 30.0 tumor cells

**Q.** And the “Threshold of tumor cell numbers” value (HPV-16 [2]; Sample # 3)?
**A.** 150.0 tumor cells

**Q.** And the “Threshold of tumor cell numbers” value (HPV-16 [2]; Sample # 4)?
**A.** 60.0 tumor cells

**Q.** What about the “Threshold of tumor cell numbers” value (HPV-16 [2]; Sample # 5) of the same molecule?
**A.** 150.0 tumor cells

**Q.** What about the “Threshold of tumor cell numbers” value (HPV-16 [2]; Sample # 6) of the same molecule?
**A.** 30.0 tumor cells

**Q.** What about the “Threshold of tumor cell numbers” value (HPV-16 [2]; Sample # 7) of the same molecule?
**A.** 30.0 tumor cells

**Q.** And the “Threshold of tumor cell numbers” value (HPV-16 [2]; Sample # 8)?
**A.** 15.0 tumor cells

**Q.** And the “Threshold of tumor cell numbers” value (HPV-16 [2]; Sample # 9)?
**A.** 30.0 tumor cells

**Q.** What about the “Threshold of tumor cell numbers” value (HPV-16 [2]; Sample # 10) of the same molecule?
**A.** 30.0 tumor cells

**Q.** And the “Threshold of tumor cell numbers” value (HPV-16 [2]; Sample # 11)?
**A.** 6.0 tumor cells

**Q.** And the “Threshold of tumor cell numbers” value (HPV-16 [2]; Sample # 12)?
**A.** 30.0 tumor cells

**Q.** What about the “Threshold of tumor cell numbers” value (HPV-16 [2]; Sample # 13) of the same molecule?
**A.** 30.0 tumor cells

**Q.** And the “Threshold of tumor cell numbers” value (HPV-16 [2]; Sample # 14)?
**A.** 30.0 tumor cells

**Q.** What about the “Threshold of tumor cell numbers” value (HPV-16 [2]; Sample # 15) of the same molecule?
**A.** 30.0 tumor cells

**Q.** What about the “Threshold of tumor cell numbers” value (HPV-16 [2]; Sample # 16) of the same molecule?
**A.** 6.0 tumor cells

**Q.** And the “Threshold of tumor cell numbers” value (HPV-16 [2]; Sample # 17)?
**A.** 6.0 tumor cells

**Q.** And the “Threshold of tumor cell numbers” value (HPV-16 [2]; Sample # 18)?
**A.** 6.0 tumor cells

**Q.** What about the “Threshold of tumor cell numbers” value (HPV-16 [2]; Sample # 19) of the same molecule?
**A.** 1.2 tumor cells

**Q.** What about the “Threshold of tumor cell numbers” value (HPV-16 [2]; Sample # 20) of the same molecule?
**A.** 1.2 tumor cells

**Q.** What about the “Threshold of tumor cell numbers” value (HPV-16 [2]; Sample # 21) of the same molecule?
**A.** 6.0 tumor cells

**Q.** And the “Threshold of tumor cell numbers” value (HPV-16 [2]; Sample # 22)?
**A.** 0.3 tumor cells

**Q.** And the “Threshold of tumor cell numbers” value (HPV-16 [2]; Sample # 23)?
**A.** 1.2 tumor cells

**Q.** And the “Threshold of tumor cell numbers” value (HPV-16 [2]; Sample # 24)?
**A.** 1.2 tumor cells

**Q.** What about the “Threshold of tumor cell numbers” value (HPV-16 [2]; Sample # 25) of the same molecule?
**A.** 0.6 tumor cells

**Q.** And the “Threshold of tumor cell numbers” value (HPV-16 [2]; Sample # 26)?
**A.** 0.6 tumor cells

**Q.** And the “Threshold of tumor cell numbers” value (HPV-16 [2]; Sample # 27)?
**A.** 0.6 tumor cells

**Q.** And the “Threshold of tumor cell numbers” value (HPV-16 [2]; Sample # 28)?
**A.** 1.0 tumor cells

**Q.** What about the “Threshold of tumor cell numbers” value (HPV-16 [2]; Sample # 29) of the same molecule?
**A.** 3.0 tumor cells

**Q.** And the “Threshold of tumor cell numbers” value (HPV-16 [2]; Sample # 30)?
**A.** 30.0 tumor cells

**Q.** And the “Threshold of tumor cell numbers” value (HPV-16 [2]; Sample # 31)?
**A.** 0.6 tumor cells

**Q.** And the “Threshold of tumor cell numbers” value (HPV-16 [2]; Sample # 32)?
**A.** 30.0 tumor cells

**Q.** What about the “Sensitivity, 1 cell” value (HPV-16 [2]; [6]) of the same molecule?
**A.** 0.156

**Q.** What about the “Sensitivity, 3 cells” value (HPV-16 [2]; [6]) of the same molecule?
**A.** 0.313

**Q.** And the “Sensitivity, 10 cells” value (HPV-16 [2]; [6])?
**A.** 0.500

**Q.** What about the “Sensitivity, 30 cells” value (HPV-16 [2]; [6]) of the same molecule?
**A.** 0.844

**Q.** And the “Sensitivity, 100 cells” value (HPV-16 [2]; [6])?
**A.** 0.938

**Q.** And the “sensitivity for the detection of HPV DNA in saliva rinse samples” value (HPV DNA; 28 patients with HPV-positive HNSCC)?
**A.** 71%

**Q.** What about the “HPV16 DNA measured by CLIA HPV test” value (HPV DNA; saliva sample from HPV-HNSCC patient # 1) of the same molecule?
**A.** 322000

**Q.** What about the “HPV16 DNA measured by CLIA HPV test” value (HPV DNA; saliva sample from HPV-HNSCC patient # 2) of the same molecule?
**A.** 52500

**Q.** What about the “HPV16 DNA measured by CLIA HPV test” value (HPV DNA; saliva sample from HPV-HNSCC patient # 3) of the same molecule?
**A.** 25800

**Q.** What about the “HPV16 DNA measured by CLIA HPV test” value (HPV DNA; saliva sample from HPV-HNSCC patient # 4) of the same molecule?
**A.** 33200

**Q.** And the “HPV16 DNA measured by CLIA HPV test” value (HPV DNA; saliva sample from HPV-HNSCC patient # 7)?
**A.** 9670

**Q.** And the “HPV16 DNA measured by CLIA HPV test” value (HPV DNA; saliva sample from HPV-HNSCC patient # 8)?
**A.** 2510

**Q.** And the “HPV16 DNA measured by CLIA HPV test” value (HPV DNA; saliva sample from HPV-HNSCC patient # 9)?
**A.** 1590

**Q.** And the “HPV16 DNA measured by CLIA HPV test” value (HPV DNA; saliva sample from HPV-HNSCC patient # 12)?
**A.** 86.7

**Q.** What about the “HPV16 DNA measured by CLIA HPV test” value (HPV DNA; saliva sample from HPV-HNSCC patient # 13) of the same molecule?
**A.** 53.1

**Q.** What about the “HPV16 DNA measured by CLIA HPV test” value (HPV DNA; saliva sample from HPV-HNSCC patient # 14) of the same molecule?
**A.** 31.1

**Q.** What about the “HPV16 DNA measured by CLIA HPV test” value (HPV DNA; saliva sample from HPV-HNSCC patient # 15) of the same molecule?
**A.** 49.7

**Q.** What about the “HPV16 DNA measured by CLIA HPV test” value (HPV DNA; saliva sample from HPV-HNSCC patient # 16) of the same molecule?
**A.** 41.3

**Q.** What about the “HPV16 DNA measured by CLIA HPV test” value (HPV DNA; saliva sample from HPV-HNSCC patient # 17) of the same molecule?
**A.** 15.8

**Q.** What about the “HPV16 DNA measured by CLIA HPV test” value (HPV DNA; saliva sample from HPV-HNSCC patient # 18) of the same molecule?
**A.** 2.61

**Q.** And the “HPV16 DNA measured by CLIA HPV test” value (HPV DNA; saliva sample from HPV-HNSCC patient # 19)?
**A.** 26.9

**Q.** What about the “HPV16 DNA measured by CLIA HPV test” value (HPV DNA; saliva sample from HPV-HNSCC patient # 20) of the same molecule?
**A.** 13.4

**Q.** What about the “HPV16 DNA measured by CLIA HPV test” value (HPV DNA; saliva sample from HPV-HNSCC patient # 21) of the same molecule?
**A.** 6.54

**Q.** And the “HPV16 DNA measured by CLIA HPV test” value (HPV DNA; saliva sample from HPV-HNSCC patient # 22)?
**A.** 1.16

**Q.** And the “HPV16 DNA measured by CLIA HPV test” value (HPV DNA; saliva sample from HPV-HNSCC patient # 26)?
**A.** 2.15

**Q.** And the “HPV16 DNA measured by CLIA HPV test” value (HPV DNA; saliva sample from HPV-HNSCC patient # 27)?
**A.** 1.19

**Q.** What about the “Accuracy - Plasma Blind Panel, Negative % Agreement” value (HPV16 DNA [3]) of the same molecule?
**A.** 100%

**Q.** And the “Accuracy - Plasma Blind Panel, Positive % Agreement” value (HPV16 DNA [3])?
**A.** 100%

**Q.** What about the “Accuracy - Plasma Blind Panel, Total % Agreement” value (HPV16 DNA [3]) of the same molecule?
**A.** 100%

**Q.** What about the “Measuring Range - Plasma” value (HPV16 DNA [3]; first template ('... HPV16')) of the same molecule?
**A.** 2.0-8.5 log10 log10 copies/mL

**Q.** What about the “Limit of Detection - Plasma” value (HPV16 DNA [3]; [7]) of the same molecule?
**A.** 1.5 copies/mL

**Q.** And the “Limit of Detection - Plasma” value (HPV16 DNA [3]; [8])?
**A.** 20 copies/mL

**Q.** And the “Measuring Range - Plasma” value (HPV16 DNA [3]; [8])?
**A.** 2.0-6.5 log10 log10 copies/mL

**Q.** And the “sensitivity of detection from saliva 20 ng DNA samples” value (HPV-16 [4]; 28 HPV-HNSCC saliva samples)?
**A.** 46.4%

**Q.** What about the “copy numbers detected (standard curve analysis)” value (HPV-16 [4]; compared among 4 primer-probe sets) of the same molecule?
**A.** highest

**Q.** What about the “reaction under 30 copies of HPV-16 genome” value (HPV-16 genome) of the same molecule?
**A.** consistently amplified

**Q.** And the “reaction under 30 copies of HPV-16 genome” value (HPV-16 genome; listed as Max-10)?
**A.** react consistently

**Q.** And the “number of reactions against 10 HPV-16 copies” value (HPV-16 genome; [9])?
**A.** one

**Q.** And the “number of reactions under 30 HPV-16 copies” value (HPV-16 genome; [9])?
**A.** 3 reactions

**Q.** And the “Measuring Range - Salivary Rinse” value (HPV16 DNA [5]; first template ('... HPV16'))?
**A.** 2.0-8.5log10 log10 copies/mL

**Q.** And the “Limit of Detection - Salivary rinse” value (HPV16 DNA [5]; [7])?
**A.** 2 copies/mL

**Q.** And the “Limit of Detection - Salivary rinse” value (HPV16 DNA [5]; [8])?
**A.** 19 copies/mL

**Q.** What about the “Measuring Range - Salivary Rinse” value (HPV16 DNA [5]; [8]) of the same molecule?
**A.** 2.0-6.5 log10 log10 copies/mL
